Results published in patent US20150291951.

Experiments:
Experiment in all cases: cell_activity
[1] = tested on: ponzr1 right TALEN +231 (pTAL) (synthetic construct (Xanthomonas TALE-FokI)); settings: pair with P3; zebrafish larvae
[2] = tested on: crhr1 right TALEN +63 (synthetic construct (Xanthomonas TALE-FokI)); settings: pair with P5, 15 bp spacer; 15-fold over +231
[3] = tested on: crhr1 right TALEN +231 (synthetic construct (Xanthomonas TALE-FokI)); settings: pair with P7
[4] = tested on: ponzr1 left TALEN +231 (pTAL) (synthetic construct (Xanthomonas TALE-FokI)); settings: pair with P4; zebrafish larvae
[5] = tested on: crhr1 left TALEN +63 (synthetic construct (Xanthomonas TALE-FokI)); settings: pair with P6, 15 bp spacer; 15-fold over +231
[6] = tested on: crhr1 left TALEN +231 (synthetic construct (Xanthomonas TALE-FokI)); settings: pair with P8

“ATCAGAACAACAGTCAGAGAT (double strand) [ponzr1 right half-site]” showed an activity (% modification (median)) [1] of 5.
Work on “CTGCTGCCGACTGGACCCTGAGGT (double strand) [crhr1 right half-site]” yielded an activity (% modification (median)) [2] of 7 and an activity (% modification (median)) [3] of less than 1.
In the case of “GTGAGCACCCAGCGGACCTCCTCT (double strand) [ponzr1 left half-site]”, the activity (% modification (median)) [4] is reported as 5.
With “TGCAACACTGAGCTCTGTAAACCT (double strand) [crhr1 left half-site]” the activity (% modification (median)) [5] was 7 and the activity (% modification (median)) [6] was less than 1.
